Earlier results, collected in article PMC5007751.

Target: RNA helicase A distal portion of helicase domain (Homo sapiens) (UniProt Q08211)
Chain of UniProt Q08211 (Q08211 630-1020): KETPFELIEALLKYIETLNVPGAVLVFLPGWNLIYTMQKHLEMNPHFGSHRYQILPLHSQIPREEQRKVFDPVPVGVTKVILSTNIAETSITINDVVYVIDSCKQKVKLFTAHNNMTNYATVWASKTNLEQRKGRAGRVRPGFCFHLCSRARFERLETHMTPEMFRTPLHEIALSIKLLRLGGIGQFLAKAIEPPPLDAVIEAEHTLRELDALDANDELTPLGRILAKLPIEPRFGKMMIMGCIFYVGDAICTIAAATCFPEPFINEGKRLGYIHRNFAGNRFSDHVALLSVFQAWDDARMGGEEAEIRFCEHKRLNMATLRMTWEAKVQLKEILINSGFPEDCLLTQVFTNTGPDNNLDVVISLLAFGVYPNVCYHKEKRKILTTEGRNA

- Kd: 9.48 µM
Substance: EWS/FLI (from UniProt Q01844)
